Data: patent US7078174B1, “Screening methods using SOCS box-containing peptides” (The Walter & Eliza Hall Institute of Medical Research, priority 1998, dated 2006)
Entries after “also recorded” stand apart in the source; their conditions may differ. Square brackets hold non-standard residues; d marks the D form. Ends that are not written are not given here. Peptide text beside a SMILES is read from it. * marks the point of attachment. Biotin = O=C1N[C@H]2[C@H](CS[C@H]2CCCCC(=O)*)N1; Nle = CCCC[C@H](N)C(=O)O

Legend:
elongins B and C [1] = target: T1, elongins B and C (Mus musculus, UniProt P62869+P83940); assay: Affinity purification of SOCS box-binding proteins from M1 cell lysates on GST-SOCS box Sepharose; parameters: species or system murine; conditions: mass spectrometry and Western blot, not seen with GST control
T1 construct: endogenous in cells; host or cells: M1 murine monocytic leukemic cells
Description: DNA fragments encoding the SOCS boxes from mouse SOCS-1 (residues 172–212) and SOCS-3 (residues 186–225) with an N-terminal linker sequence (EGKSSGSGSESKVD) (SEQ ID NO:3) were generated by PCR and cloned into the bacterial expression vector pGEX-2T (9). The GST fusion proteins were purified by affinity chromatography on glutathione Sepharose 4B (Amersham Pharmacia Biotec) and affinity resins were prepared by covalently coupling 1 mg of purified proteins to 1 ml of NHS-activated Sepharose resin (Amersham Pharmacia Biotec). Before use, the affinity resins were washed with elution buffer (0.5% w/v SDS, 50 mM DTT, 50 mM Tris-HCl, pH 8.0 and 150 mM NaCl) and equilibrated in lysis buffer (0.5% w/v Nonidet P-40, 10 mM Tris-HCl, pH 7.5 and 100 mM NaCl).
M1 cells (2×10^10) were lysed on ice for 30 min in 100 ml of lysis buffer supplemented with protease inhibitors (Complete Cocktail tablets; Boehringer Mannheim, Mannheim, Germany), 1 mM PMSF, 1 mM Na3VO4 and 1 mM NaF. The total cell lysate was centrifuged at 15,000 rpm (SS34 rotor) for 15 min at 4° C. and the clarified supernatant pre-incubated with 1 ml of GST-Sepharose resin for 2 h at 4° C. Half the GST-Sepharose-depleted M1 cell lysate was incubated with 1 ml of GST-SOCS-1 SOCS box- and the other half with GST-SOCS-3 SOCS box-Sepharose resin for 2 h at 4° C. […]

elongin C = target: T2, elongin C (Mus musculus, UniProt P83940); assay: Competition of SOCS-1 SOCS box/elongin C interaction in M1 cellular extracts; assay type: binding, murine; conditions: 80 mM competing non-biotinylated SOCS box peptide, SDS-PAGE, silver staining
T2 construct: endogenous in cells; host or cells: M1 murine monocytic leukemic cells (lysate)
Description: (§1) Following biotinylation, the peptide was reduced by treatment with 5 mM DTT. Typically, peptide was coupled to streptavidin-agarose resin (Pierce immunopure; 1–2 mg streptavidin/mL resin) by incubating equal volumes of resin and 1 mg/mL peptide for 1 h, followed by extensive washing.
(§2) M1 cells were lysed as previously described, except at a concentration of 10^9 cells/mL of lysis buffer. Streptavidin-agarose binding proteins were precleared from lysate by treating overnight at 4° C. with streptavidin-agarose resin (100 μL of resin/mL lysate). SOCS box peptides (SOCS-1, ASB-2 and WSB-2) were solubilized in water at 10 mg/mL, and aliquots of these, or water alone, were added to 350 μL fractions of cleared lysate, followed by incubation for 3 h at 4° C. These lysates were then added to 30 μL of SOCS-1 SOCS box peptide resin and incubated a further 2 h at 4° C. The resin was extensively washed with lysis buffer and bound proteins were eluted with 20 μL of 4×SDS sample buffer. Proteins were separated by SDS-PAGE on a 4–15% reducing gel.

elongins B and C [2] = target: T1, elongins B and C; assay: Affinity purification from M1 cellular extracts with biotinylated SOCS-1 SOCS box peptide on streptavidin-agarose; assay type: binding, murine; conditions: streptavidin-agarose bound peptide; mass spectrometry
Description: as §1, §2

SOCS-3 protein = assay: IL-6-induced expression of endogenous SOCS-3 protein in J774 cells; assay type: cell-based; conditions: LLnL 50 μM, 100 ng/ml murine IL-6, 30–180 min
Description: Mouse macrophage-like J774 cells were grown continuously in DME containing 10% bovine calf serum. The cells were washed once in PBS, twice with DME and starved for 1 h in DME containing 0.1% w/v low-endotoxin bovine serum albumin (BSA; Sigma). The proteasome inhibitor LLnL dissolved in dimethyl sulfoxide (DMSO) or DMSO was added to the cells for 15 min and the cells then stimulated with 100 ng/ml of murine IL-6 for the indicated times.
Proteins were immunoprecipitated with anti-myc (9E10; WEHI) and protein A-Sepharose or anti-FLAG antibody conjugated to Sepharose (KM5-IC7; WEHI) and separated by sodium dodecyl sulphate-polyacrylamide gel electrophoresis (SDS-PAGE) (Biorad, Hercules, Calif.) under reducing conditions. Proteins were then electrophoretically transferred to PVDF-Plus membranes (Micron Separations Inc. WestBorough, Mass.) and Western blotted as described (8).

T2 sequence (P83940 whole entry): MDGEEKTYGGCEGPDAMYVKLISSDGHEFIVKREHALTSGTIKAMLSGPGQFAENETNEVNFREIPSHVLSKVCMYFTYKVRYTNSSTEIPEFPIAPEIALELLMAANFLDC
T2 sequence (P62869 whole entry partner): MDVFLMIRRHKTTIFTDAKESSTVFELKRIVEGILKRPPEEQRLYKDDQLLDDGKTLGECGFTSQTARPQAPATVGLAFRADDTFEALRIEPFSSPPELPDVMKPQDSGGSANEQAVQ
T1 sequence (P83940 whole entry): as the sequence (P83940 whole entry) above
T1 sequence (P62869 whole entry): as the sequence (P62869 whole entry partner) above

Row | Compound | elongins B and C in eluates from affinity resin (elongins B and C [1]) | competition of elongin C binding to immobilized SOCS-1 SOCS box peptide (elongin C) | other results
1 | GST-SOCS-3 SOCS box: GST fusion protein with SOCS box of mouse SOCS-3 (residues 186–225) and N-terminal linker, coupled to Sepharose (EGKSSGSGSESKVDVATLQHLCRKTVNGHLDSYEKVTQLPGPIREFLDQYDAPL; not fully specified (N-terminus); also: coupled to Sepharose) | both elongins were present in eluates |  | 
2 | WSB-2 SOCS box peptide: Synthetic peptide fragment of murine WSB-2 corresponding to the SOCS box and five upstream N-terminal residues (TAPRVLSSLKHLCRKALRSFLTTYQVLALPIPKKMKEFLTYRTF) |  | competed for this interaction; also recorded: prevented binding of elongin C to immobilized SOCS-1 SOCS box | 
3 | biotinylated SOCS-1 SOCS box peptide: SOCS-1 SOCS box peptide biotinylated at the amino terminus with sulfosuccinimidobiotin, coupled to streptavidin-agarose (Biotin-LRQRRVRPLQELCRQRIVAAVGRENLARIPLNPVLRDYLSSFPFQI; also: coupled to streptavidin-agarose) |  |  | interacting proteins identified in M1 cellular extracts (elongins B and C [2]): identification by mass spectrometry of elongins B and C as interacting proteins
4 | SOCS-1 SOCS box peptide: Synthetic peptide fragment of murine SOCS-1 corresponding to the SOCS box and five upstream N-terminal residues (LRQRRVRPLQELCRQRIVAAVGRENLARIPLNPVLRDYLSSFPFQI) |  | competed for this interaction; also recorded: prevented binding of elongin C to immobilized SOCS-1 SOCS box | 
5 | CCCC[C@@H](C=O)NC(=O)[C@H](CC(C)C)NC(=O)[C@H](CC(C)C)NC(C)=O [LLnL, N-acetyl-L-leucinyl-L-leucinyl-norleucinal] (Ac-Leu-Leu-[Nle]-aldehyde) |  |  | SOCS-3 protein levels after IL-6 stimulation (SOCS-3 protein): continual increase in SOCS-3 protein levels
6 | GST-SOCS-1 SOCS box: GST fusion protein with SOCS box of mouse SOCS-1 (residues 172–212) and N-terminal linker, coupled to Sepharose (EGKSSGSGSESKVDVRPLQELCRQRIVAAVGRENLARIPLNPVLRDYLSSFPFQI; not fully specified (N-terminus); also: coupled to Sepharose) | both elongins were present in eluates |  | 
